{"source": "patent US20170355774A1", "binders": {"B1": {"name": "Anti-GITR Control Ab I-mIgG1 (antibody, from another filing, V domains shown)", "VH": "QVTLKESGPGILKPSQTLSLTCSFSGFSLSTSGMGVGWIRQPSGKGLEWLAHIWWDDDKYYNPSLKSQLTISKDTSRNQVFLKITSVDTADAATYYCARTRRYFPFAYWGQGTLVTVSS", "VL": "DIVMTQSQKFMSTSVGDRVSVTCKASQNVGTNVAWYQQKPGQSPKALIYSASYRYSGVPDRFTGSGSGTDFTLTINNVHSEDLAEYFCQQYNTDPLTFGAGTKLEIK"}, "B2": {"name": "Anti-GITR Control Ab I-mIgG2a (antibody, from another filing, V domains shown)", "VH": "QVTLKESGPGILKPSQTLSLTCSFSGFSLSTSGMGVGWIRQPSGKGLEWLAHIWWDDDKYYNPSLKSQLTISKDTSRNQVFLKITSVDTADAATYYCARTRRYFPFAYWGQGTLVTVSS", "VL": "DIVMTQSQKFMSTSVGDRVSVTCKASQNVGTNVAWYQQKPGQSPKALIYSASYRYSGVPDRFTGSGSGTDFTLTINNVHSEDLAEYFCQQYNTDPLTFGAGTKLEIK"}}, "key": {"hGITR.hFc (human)": {"molecular_target": "hGITR.hFc (human)", "sequence (chain, as listed by the source limits assumed)": "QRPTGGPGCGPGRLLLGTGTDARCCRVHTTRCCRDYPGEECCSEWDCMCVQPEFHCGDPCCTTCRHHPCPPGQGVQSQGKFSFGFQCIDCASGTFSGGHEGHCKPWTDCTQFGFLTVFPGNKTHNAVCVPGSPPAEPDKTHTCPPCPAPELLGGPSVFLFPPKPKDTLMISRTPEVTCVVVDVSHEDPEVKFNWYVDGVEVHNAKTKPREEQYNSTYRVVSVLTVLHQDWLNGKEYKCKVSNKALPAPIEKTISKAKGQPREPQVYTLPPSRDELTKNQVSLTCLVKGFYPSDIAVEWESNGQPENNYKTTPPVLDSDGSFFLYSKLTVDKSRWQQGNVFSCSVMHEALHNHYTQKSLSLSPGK", "experiment": "SPR 37C, mAb capture"}, "hGITR.mmh (human)": {"molecular_target": "hGITR.mmh (human)", "sequence (chain, as listed by the source limits assumed)": "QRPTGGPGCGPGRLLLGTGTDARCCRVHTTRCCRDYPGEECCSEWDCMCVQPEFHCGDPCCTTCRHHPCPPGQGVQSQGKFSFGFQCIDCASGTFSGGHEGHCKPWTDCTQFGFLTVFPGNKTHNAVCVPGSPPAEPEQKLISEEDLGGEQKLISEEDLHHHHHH", "experiment": "SPR 37C, mAb capture"}, "[1]": {"molecular_target": "mfGITR.mmh (Macaca fasicularis)", "sequence (chain, as listed by the source limits assumed)": "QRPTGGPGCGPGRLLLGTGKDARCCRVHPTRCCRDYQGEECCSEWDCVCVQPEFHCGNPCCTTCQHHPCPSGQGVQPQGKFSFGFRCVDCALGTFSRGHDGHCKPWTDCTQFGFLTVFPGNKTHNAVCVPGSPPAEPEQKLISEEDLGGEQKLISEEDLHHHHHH", "experiment": "SPR 37C, mAb capture"}, "[2]": {"molecular_target": "human GITR (amino acids M1-V241, NCBI Accession #NP_004186.1) expressed on cells (human) (UniProt Q9Y5U5)", "sequence (Q9Y5U5 26-241)": "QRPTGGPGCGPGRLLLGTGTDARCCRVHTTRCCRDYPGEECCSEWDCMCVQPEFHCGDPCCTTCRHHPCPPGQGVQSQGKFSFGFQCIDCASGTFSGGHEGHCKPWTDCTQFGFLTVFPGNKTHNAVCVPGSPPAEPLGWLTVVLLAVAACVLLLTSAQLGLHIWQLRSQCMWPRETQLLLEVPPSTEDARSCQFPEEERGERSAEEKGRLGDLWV", "experiment": "cell-based or functional assay"}}}
{"binder": "B1", "values": [{"measurement": "Kd", "setting": "hGITR.hFc (human)", "value": 20.4, "unit": "nM"}, {"measurement": "koff", "setting": "hGITR.hFc (human)", "value": 0.0078, "unit": "s⁻¹"}, {"measurement": "kon", "setting": "hGITR.hFc (human)", "value": 382000, "unit": "M⁻¹ s⁻¹"}, {"measurement": "t½", "setting": "hGITR.hFc (human)", "value": 90, "unit": "s"}, {"measurement": "Kd", "setting": "hGITR.mmh (human)", "value": 122, "unit": "nM"}, {"measurement": "koff", "setting": "hGITR.mmh (human)", "value": 0.0263, "unit": "s⁻¹"}, {"measurement": "kon", "setting": "hGITR.mmh (human)", "value": 216000, "unit": "M⁻¹ s⁻¹"}, {"measurement": "t½", "setting": "hGITR.mmh (human)", "value": 24, "unit": "s"}, {"measurement": "Kd", "setting": "[1]", "value": 213, "unit": "nM"}, {"measurement": "koff", "setting": "[1]", "value": 0.0464, "unit": "s⁻¹"}, {"measurement": "kon", "setting": "[1]", "value": 218000, "unit": "M⁻¹ s⁻¹"}, {"measurement": "t½", "setting": "[1]", "value": 12, "unit": "s"}, {"measurement": "% Activation, NF-kB-Luc, non-anchored", "setting": "[2]", "value": 25, "unit": "%"}, {"measurement": "% Blocking, NF-kB-Luc, FcgR anchored", "setting": "[2]", "value": 60, "unit": "%"}, {"measurement": "% Blocking, NF-kB-Luc, non-anchored", "setting": "[2]", "value": 54, "unit": "%"}, {"measurement": "EC50, T-cell proliferation, FcgR anchored, donor 1", "setting": "[2]", "value": 37.2, "unit": "nM"}, {"measurement": "EC50, T-cell proliferation, FcgR anchored, donor 3", "setting": "[2]", "value": 42.9, "unit": "nM"}, {"measurement": "EC50, T-cell proliferation, FcgR anchored, donor 4", "setting": "[2]", "value": 3.5, "unit": "nM"}, {"measurement": "EC50, T-cell proliferation, FcgR anchored, donor 5", "setting": "[2]", "value": 52.7, "unit": "nM"}, {"measurement": "EC50, T-cell proliferation, FcgR anchored, mean", "setting": "[2]", "value": 34.1, "unit": "nM"}, {"measurement": "EC50, hGITR activation, NF-kB-Luc, FcgR anchored", "setting": "[2]", "value": 0.1, "unit": "nM"}, {"measurement": "EC50, hGITR activation, NF-kB-Luc, non-anchored", "setting": "[2]", "value": 1.02, "unit": "nM"}, {"measurement": "Fold Activation over basal signal, NF-kB-Luc, FcgR anchored", "setting": "[2]", "value": 6, "unit": "fold"}, {"measurement": "IC50, blocking of hGITRL stimulation, NF-kB-Luc, FcgR anchored", "setting": "[2]", "value": 0.2, "unit": "nM"}, {"measurement": "IC50, blocking of hGITRL stimulation, NF-kB-Luc, non-anchored", "setting": "[2]", "value": 0.1, "unit": "nM"}, {"measurement": "fold activation, T-cell proliferation, 22 nM, non-anchored, donor 1", "setting": "[2]", "value": 0.7, "unit": "fold"}, {"measurement": "fold activation, T-cell proliferation, 22 nM, non-anchored, donor 2", "setting": "[2]", "value": 0.8, "unit": "fold"}, {"measurement": "fold activation, T-cell proliferation, 22 nM, non-anchored, donor 3", "setting": "[2]", "value": 1, "unit": "fold"}, {"measurement": "fold activation, T-cell proliferation, 22 nM, non-anchored, donor 4", "setting": "[2]", "value": 1, "unit": "fold"}, {"measurement": "fold activation, T-cell proliferation, 22 nM, non-anchored, mean", "setting": "[2]", "value": 0.9, "unit": "fold"}, {"measurement": "fold activation, T-cell proliferation, 33 nM, FcgR anchored, donor 1", "setting": "[2]", "value": 2.8, "unit": "fold"}, {"measurement": "fold activation, T-cell proliferation, 33 nM, FcgR anchored, donor 2", "setting": "[2]", "value": 2.8, "unit": "fold"}, {"measurement": "fold activation, T-cell proliferation, 33 nM, FcgR anchored, donor 3", "setting": "[2]", "value": 1.4, "unit": "fold"}, {"measurement": "fold activation, T-cell proliferation, 33 nM, FcgR anchored, donor 4", "setting": "[2]", "value": 1.1, "unit": "fold"}, {"measurement": "fold activation, T-cell proliferation, 33 nM, FcgR anchored, donor 5", "setting": "[2]", "value": 1.7, "unit": "fold"}, {"measurement": "fold activation, T-cell proliferation, 33 nM, FcgR anchored, mean", "setting": "[2]", "value": 2, "unit": "fold"}, {"measurement": "fold activation, T-cell proliferation, plate-bound Ab 10.6 nM, donor 1", "setting": "[2]", "value": 6, "unit": "fold"}, {"measurement": "fold activation, T-cell proliferation, plate-bound Ab 10.6 nM, donor 2", "setting": "[2]", "value": 23, "unit": "fold"}, {"measurement": "fold activation, T-cell proliferation, plate-bound Ab 10.6 nM, donor 3", "setting": "[2]", "value": 23, "unit": "fold"}, {"measurement": "fold activation, T-cell proliferation, plate-bound Ab 10.6 nM, donor 4", "setting": "[2]", "value": 40, "unit": "fold"}, {"measurement": "fold activation, T-cell proliferation, plate-bound Ab 10.6 nM, donor 5", "setting": "[2]", "value": 23, "unit": "fold"}, {"measurement": "fold activation, T-cell proliferation, plate-bound Ab 10.6 nM, donor 6", "setting": "[2]", "value": 66, "unit": "fold"}, {"measurement": "fold activation, T-cell proliferation, plate-bound Ab 10.6 nM, donor 7", "setting": "[2]", "value": 25, "unit": "fold"}, {"measurement": "fold activation, T-cell proliferation, plate-bound Ab 10.6 nM, donor 8", "setting": "[2]", "value": 11, "unit": "fold"}, {"measurement": "fold activation, T-cell proliferation, plate-bound Ab 10.6 nM, mean", "setting": "[2]", "value": 27, "unit": "fold"}]}
{"binder": "B2", "values": [{"measurement": "% Blocking, NF-kB-Luc, FcgR anchored", "setting": "[2]", "value": 74, "unit": "%"}, {"measurement": "EC50, hGITR activation, NF-kB-Luc, FcgR anchored", "setting": "[2]", "value": 0.2, "unit": "nM"}, {"measurement": "Fold Activation over basal signal, NF-kB-Luc, FcgR anchored", "setting": "[2]", "value": 5, "unit": "fold"}, {"measurement": "IC50, blocking of hGITRL stimulation, NF-kB-Luc, FcgR anchored", "setting": "[2]", "value": 0.01, "unit": "nM"}, {"measurement": "fold activation, T-cell proliferation, 33 nM, FcgR anchored, donor 1", "setting": "[2]", "value": 1.1, "unit": "fold"}, {"measurement": "fold activation, T-cell proliferation, 33 nM, FcgR anchored, donor 2", "setting": "[2]", "value": 0.1, "unit": "fold"}, {"measurement": "fold activation, T-cell proliferation, 33 nM, FcgR anchored, donor 3", "setting": "[2]", "value": 1, "unit": "fold"}, {"measurement": "fold activation, T-cell proliferation, 33 nM, FcgR anchored, donor 4", "setting": "[2]", "value": 1, "unit": "fold"}, {"measurement": "fold activation, T-cell proliferation, 33 nM, FcgR anchored, donor 5", "setting": "[2]", "value": 1.2, "unit": "fold"}, {"measurement": "fold activation, T-cell proliferation, 33 nM, FcgR anchored, mean", "setting": "[2]", "value": 1.3, "unit": "fold"}]}
